According to patent US20240002544A1 (NOVIMMUNE, published 2024):
Where a chain is given by its changes, count along the chain named.

B1: AI5O30/N (bispecific antibody, human IgG1, kappa, lambda, L234A L235A)
heavy: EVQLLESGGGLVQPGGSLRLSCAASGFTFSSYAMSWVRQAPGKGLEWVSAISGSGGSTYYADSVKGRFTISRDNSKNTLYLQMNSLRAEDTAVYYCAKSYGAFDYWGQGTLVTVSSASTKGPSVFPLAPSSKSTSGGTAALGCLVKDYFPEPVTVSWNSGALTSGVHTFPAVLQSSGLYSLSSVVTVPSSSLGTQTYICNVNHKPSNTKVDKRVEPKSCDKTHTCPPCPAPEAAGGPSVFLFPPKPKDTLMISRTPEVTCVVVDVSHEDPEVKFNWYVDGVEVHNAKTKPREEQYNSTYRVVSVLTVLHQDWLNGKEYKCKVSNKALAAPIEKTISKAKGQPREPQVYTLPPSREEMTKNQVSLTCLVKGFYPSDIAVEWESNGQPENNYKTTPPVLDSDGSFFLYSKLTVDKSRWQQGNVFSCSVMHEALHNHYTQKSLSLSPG
light 1: DIVMTQTPLSLSVTPGQPASISCKSSGDLLTFEGKTYLYWYLQKPGQPPQLLIYEVSNRFSGVPDRFSGSGSGTDFTLKISRVEAEDVGVYYCMQAHSTRFAFTFGQGTKVEIKRTVAAPSVFIFPPSDEQLKSGTASVVCLLNNFYPREAKVQWKVDNALQSGNSQESVTEQDSKDSTYSLSSTLTLSKADYEKHKVYACEVTHQGLSSPVTKSFNRGEC
light 2: not shown
notes: κλ-body, huIgG1-LALAPA; also called AI5 (AI_1A9) kappa / O30 (O1b6_1D1) lambda
B2: AI5O41/N (bispecific antibody, human IgG1, kappa, lambda, L234A L235A)
heavy: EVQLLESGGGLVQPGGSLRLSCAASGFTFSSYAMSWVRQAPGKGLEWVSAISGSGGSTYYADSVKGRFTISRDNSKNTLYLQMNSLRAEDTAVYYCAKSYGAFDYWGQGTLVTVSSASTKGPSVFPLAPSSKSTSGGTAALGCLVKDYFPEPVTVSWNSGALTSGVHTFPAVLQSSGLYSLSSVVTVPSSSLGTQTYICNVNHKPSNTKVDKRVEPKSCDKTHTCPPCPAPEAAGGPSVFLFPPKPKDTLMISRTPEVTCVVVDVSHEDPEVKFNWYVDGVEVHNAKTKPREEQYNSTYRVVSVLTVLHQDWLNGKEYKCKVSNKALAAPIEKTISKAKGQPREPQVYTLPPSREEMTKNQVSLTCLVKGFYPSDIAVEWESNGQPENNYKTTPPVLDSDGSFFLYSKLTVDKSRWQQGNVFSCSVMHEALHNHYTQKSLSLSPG
light 1: B1 light 1
light 2: SYVLTQPPSVSVAPGKTARITCGGNKIGHRAVHWYQQKPGQAPVLVIYYTYERPSGIPERFSGSNSGNTATLTISRVEAGDEADYYCQVWDWYSEGGVVFGGGTKLTVLGQPKAAPSVTLFPPSSEELQANKATLVCLISDFYPGAVTVAWKADSSPVKAGVETTTPSKQSNNKYAASSYLSLTPEQWKSHRSYSCQVTHEGSTVEKTVAPTECS
notes: κλ-body, huIgG1-LALAPA; also called AI5 (AI_1A9) kappa / O41 (Ob9_1A11) lambda
B3: AI5O35/N (bispecific antibody, human IgG1, kappa, lambda, L234A L235A)
heavy: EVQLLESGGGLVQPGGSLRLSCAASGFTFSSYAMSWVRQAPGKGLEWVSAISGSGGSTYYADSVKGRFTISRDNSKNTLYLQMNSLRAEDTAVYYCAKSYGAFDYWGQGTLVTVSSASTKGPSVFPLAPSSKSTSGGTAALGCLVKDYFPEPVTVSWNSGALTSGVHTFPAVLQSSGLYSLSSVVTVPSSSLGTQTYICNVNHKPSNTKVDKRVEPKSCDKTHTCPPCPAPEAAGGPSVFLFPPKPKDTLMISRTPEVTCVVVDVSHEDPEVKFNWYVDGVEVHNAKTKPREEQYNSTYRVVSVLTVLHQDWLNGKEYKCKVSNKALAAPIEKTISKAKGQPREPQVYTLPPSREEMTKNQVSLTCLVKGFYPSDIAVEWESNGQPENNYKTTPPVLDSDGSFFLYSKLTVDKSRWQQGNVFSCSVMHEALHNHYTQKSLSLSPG
light 1: B1 light 1
light 2: QPVLTQPVSLSASPGASVSLTCTLRSDIRVRDYRIFWYQQKPGSPPQYLLRYKTDSDKQQGSGVPSRFSGSKDASANAGILLISGLQSEDEADYYCMIWHRTTGTSLVFGGGTKLTVLGQPKAAPSVTLFPPSSEELQANKATLVCLISDFYPGAVTVAWKADSSPVKAGVETTTPSKQSNNKYAASSYLSLTPEQWKSHRSYSCQVTHEGSTVEKTVAPTECS
notes: κλ-body, huIgG1-LALAPA; also called AI5 (AI_1A9) kappa / O35 (Ob8_A10) lambda
B4: AI10O30/N (bispecific antibody, human IgG1, kappa, lambda, L234A L235A)
heavy: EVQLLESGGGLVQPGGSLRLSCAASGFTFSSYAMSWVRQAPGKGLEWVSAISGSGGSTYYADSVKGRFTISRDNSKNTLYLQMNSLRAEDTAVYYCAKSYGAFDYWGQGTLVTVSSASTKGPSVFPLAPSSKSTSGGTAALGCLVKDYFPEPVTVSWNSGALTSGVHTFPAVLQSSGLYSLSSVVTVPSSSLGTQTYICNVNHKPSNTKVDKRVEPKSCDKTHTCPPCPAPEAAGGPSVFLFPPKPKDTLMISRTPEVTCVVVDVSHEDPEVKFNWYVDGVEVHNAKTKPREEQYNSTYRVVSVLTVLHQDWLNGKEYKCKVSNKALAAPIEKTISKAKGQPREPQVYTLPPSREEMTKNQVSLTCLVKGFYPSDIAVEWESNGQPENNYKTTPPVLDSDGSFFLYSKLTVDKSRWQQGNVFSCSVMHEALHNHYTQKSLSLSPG
light 1: B1 light 1 with T31E, E33A, S98G, T99S, R100K, F101I, A102G
light 2: not shown
notes: κλ-body, huIgG1-LALAPA; also called AI10 (AI_1B6) kappa / O30 (O1b6_1D1) lambda
B5: AI10O41/N (bispecific antibody, human IgG1, kappa, lambda, L234A L235A)
heavy: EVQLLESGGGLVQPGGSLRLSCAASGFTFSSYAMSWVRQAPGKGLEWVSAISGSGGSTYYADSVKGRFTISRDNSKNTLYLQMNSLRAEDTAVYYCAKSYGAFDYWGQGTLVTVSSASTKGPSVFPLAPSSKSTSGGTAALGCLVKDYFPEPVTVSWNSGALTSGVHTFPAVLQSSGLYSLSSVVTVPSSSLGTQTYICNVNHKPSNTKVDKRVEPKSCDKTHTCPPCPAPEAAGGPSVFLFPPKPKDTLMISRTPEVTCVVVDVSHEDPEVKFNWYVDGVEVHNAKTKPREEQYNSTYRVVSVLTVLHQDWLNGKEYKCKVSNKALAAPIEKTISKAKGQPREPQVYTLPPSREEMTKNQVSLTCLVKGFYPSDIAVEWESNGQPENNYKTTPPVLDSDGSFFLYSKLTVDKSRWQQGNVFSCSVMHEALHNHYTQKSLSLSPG
light 1: B1 light 1 with T31E, E33A, S98G, T99S, R100K, F101I, A102G
light 2: B2 light 2
notes: κλ-body, huIgG1-LALAPA; also called AI10 (AI_1B6) kappa / O41 (Ob9_1A11) lambda
B6: AI10O35/N (bispecific antibody, human IgG1, kappa, lambda, L234A L235A)
heavy: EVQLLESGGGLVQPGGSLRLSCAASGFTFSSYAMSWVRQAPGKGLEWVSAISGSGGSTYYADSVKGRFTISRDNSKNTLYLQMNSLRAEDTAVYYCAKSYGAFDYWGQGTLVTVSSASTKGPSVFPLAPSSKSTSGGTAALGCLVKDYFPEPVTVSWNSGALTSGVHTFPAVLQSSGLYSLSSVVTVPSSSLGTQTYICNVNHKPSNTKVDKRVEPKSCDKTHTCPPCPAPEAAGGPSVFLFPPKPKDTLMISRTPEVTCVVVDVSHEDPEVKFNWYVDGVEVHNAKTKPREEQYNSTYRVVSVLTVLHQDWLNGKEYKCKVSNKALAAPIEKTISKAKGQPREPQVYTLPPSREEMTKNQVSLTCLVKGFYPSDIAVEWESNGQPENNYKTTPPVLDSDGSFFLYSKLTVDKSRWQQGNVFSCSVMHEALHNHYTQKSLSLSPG
light 1: B1 light 1 with T31E, E33A, S98G, T99S, R100K, F101I, A102G
light 2: B3 light 2
notes: κλ-body, huIgG1-LALAPA; also called AI10 (AI_1B6) kappa / O35 (Ob8_A10) lambda
B7: AI3O41/N (bispecific antibody, human IgG1, kappa, lambda, L234A L235A)
heavy: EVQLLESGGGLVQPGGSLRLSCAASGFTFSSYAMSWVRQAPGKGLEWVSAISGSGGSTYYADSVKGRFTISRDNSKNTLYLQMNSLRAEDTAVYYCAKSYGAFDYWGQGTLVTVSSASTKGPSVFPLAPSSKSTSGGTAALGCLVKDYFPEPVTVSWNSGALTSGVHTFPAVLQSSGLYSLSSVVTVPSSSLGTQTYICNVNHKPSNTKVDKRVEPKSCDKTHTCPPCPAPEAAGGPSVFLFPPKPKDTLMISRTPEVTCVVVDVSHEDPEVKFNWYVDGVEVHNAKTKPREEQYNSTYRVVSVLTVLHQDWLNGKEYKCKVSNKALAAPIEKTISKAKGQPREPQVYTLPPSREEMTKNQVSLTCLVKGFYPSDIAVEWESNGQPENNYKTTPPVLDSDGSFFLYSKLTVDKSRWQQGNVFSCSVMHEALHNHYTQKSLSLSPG
light 1: not shown
light 2: B2 light 2
notes: κλ-body, IgG1 LALAPA; also called AI3 (AI_1H5) kappa / O41 (Ob9_1A11) lambda
B8: AI3O35/N (bispecific antibody, human IgG1, kappa, lambda, L234A L235A)
heavy: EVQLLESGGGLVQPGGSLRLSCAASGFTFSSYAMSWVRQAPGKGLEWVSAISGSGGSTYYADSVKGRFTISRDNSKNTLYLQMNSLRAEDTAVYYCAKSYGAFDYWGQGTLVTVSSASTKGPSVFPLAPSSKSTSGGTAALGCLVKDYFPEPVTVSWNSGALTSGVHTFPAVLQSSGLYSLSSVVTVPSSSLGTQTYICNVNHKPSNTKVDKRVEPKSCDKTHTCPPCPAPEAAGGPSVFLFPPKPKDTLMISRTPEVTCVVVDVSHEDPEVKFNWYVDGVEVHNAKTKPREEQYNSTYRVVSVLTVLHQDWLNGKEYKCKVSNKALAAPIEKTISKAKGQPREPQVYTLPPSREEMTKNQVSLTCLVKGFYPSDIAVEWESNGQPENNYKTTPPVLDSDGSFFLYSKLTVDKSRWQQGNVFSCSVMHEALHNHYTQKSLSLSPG
light 1: not shown
light 2: B3 light 2
notes: κλ-body, IgG1 LALAPA; also called AI3 (AI_1H5) kappa / O35 (Ob8_A10) lambda
B9: 1a28/AC84/N (bispecific antibody, human IgG1, kappa, L234A L235A)
heavy 1: QSVLTQPPSVSAAPGQKVTISCSGSSSNIGIGLVSWYQQLPGTAPKLLIYNVNTRPSGIPDRFSGSKSGTSATLGITGLQTGDEADYYCGTWDFSYRVDFGGGTKLTVLSSASTKGPSVFPLAPSSKSTSGGTAALGCLVKDYFPEPVTVSWNSGALTSGVHTFPAVLQSSGLYSLSSVVTVPSSSLGTQTYICNVNHKPSNTKVDKKVEPKSCDKTHTCPPCPAPEAAGGPSVFLFPPKPKDTLMISRTPEVTCVVVDVSHEDPEVKFNWYVDGVEVHNAKTKPREEQYNSTYRVVSVLTVLHQDWLNGKEYKCKVSNKALAAPIEKTISKAKGQPREPQVYTLPPCRDELTKNQVSLWCLVKGFYPSDIAVEWQSNGQTENNYKTTPPVLDSDGSFFLYSKLTVDKSRWQQGNVFSCSVMHEALHNHYTQKSLSLSPG
heavy 2: QVQLQESGPGLVKPSETLSLTCTVSGGSISSYYWSWIRQPPGKGLEWIGYIYYSGITHYNPSLKSRVTISVDTSKIQFSLKLSSVTAADTAVYYCARWGVRRDYYYYGMDVWGQGTTVTVSSASTKGPSVFPLAPSSKSTSGGTAALGCLVEDYFPEPVTVTWNSGALSSGVHTFPAVLQSSGLYSLSSVVTVPSSSLGTQTYICNVNHKPSNTKVDEKVEPKSCDKTHTCPPCPAPEAAGGPSVFLFPPKPKDTLMISRTPEVTCVVVDVSHEDPEVKFNWYVDGVEVHNAKTKPREEQYNSTYRVVSVLTVLHQDWLNGKEYKCKVSNKALAAPIEKTISKAKGQPREPQVCTLPPSRDELTKNQVSLSCAVKGFYPSDIAVEWESNGQPENNYKTTPPVLDSDGSFFLVSKLTVDKSRWQQGNVFSCSVMHEALHNHYTQKSLSLSPG
light 1: not shown
light 2: not shown
notes: LALAPA-mutated huIgG1, 1+1 crossMAb/knobs-into-hole; also called benchmark CEA×CD28 bsAb
B10: AI3AC84/N (bispecific antibody, human IgG1, kappa, lambda, L234A L235A)
heavy: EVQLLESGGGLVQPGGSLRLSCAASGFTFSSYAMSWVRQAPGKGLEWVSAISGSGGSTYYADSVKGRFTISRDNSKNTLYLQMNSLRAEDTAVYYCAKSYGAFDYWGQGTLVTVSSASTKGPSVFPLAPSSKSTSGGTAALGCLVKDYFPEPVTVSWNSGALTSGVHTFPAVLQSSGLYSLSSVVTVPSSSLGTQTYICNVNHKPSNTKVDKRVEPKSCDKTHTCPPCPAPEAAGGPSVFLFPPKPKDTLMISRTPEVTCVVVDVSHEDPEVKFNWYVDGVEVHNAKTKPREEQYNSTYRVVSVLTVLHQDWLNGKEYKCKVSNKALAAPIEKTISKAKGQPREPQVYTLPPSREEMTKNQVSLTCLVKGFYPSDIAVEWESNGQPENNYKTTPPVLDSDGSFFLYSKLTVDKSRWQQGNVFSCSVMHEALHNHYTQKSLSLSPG
light 1: not shown
light 2: QSVLTQPPSVSAAPGQKVTISCSGSSSNIGIGLVSWYQQLPGTAPKLLIYNVNTRPSGIPDRFSGSKSGTSATLGITGLQTGDEADYYCGTWDFSYRVDFGGGTKLTVLGQPKAAPSVTLFPPSSEELQANKATLVCLISDFYPGAVTVAWKADSSPVKAGVETTTPSKQSNNKYAASSYLSLTPEQWKSHRSYSCQVTHEGSTVEKTVAPTECS
notes: κλ-body, IgG1 LALAPA; also called AI3 (AI_1H5) kappa / AC84 (AC1g6_1F1) lambda
B11: AI5AC84/N (bispecific antibody, human IgG1, kappa, lambda, L234A L235A)
heavy: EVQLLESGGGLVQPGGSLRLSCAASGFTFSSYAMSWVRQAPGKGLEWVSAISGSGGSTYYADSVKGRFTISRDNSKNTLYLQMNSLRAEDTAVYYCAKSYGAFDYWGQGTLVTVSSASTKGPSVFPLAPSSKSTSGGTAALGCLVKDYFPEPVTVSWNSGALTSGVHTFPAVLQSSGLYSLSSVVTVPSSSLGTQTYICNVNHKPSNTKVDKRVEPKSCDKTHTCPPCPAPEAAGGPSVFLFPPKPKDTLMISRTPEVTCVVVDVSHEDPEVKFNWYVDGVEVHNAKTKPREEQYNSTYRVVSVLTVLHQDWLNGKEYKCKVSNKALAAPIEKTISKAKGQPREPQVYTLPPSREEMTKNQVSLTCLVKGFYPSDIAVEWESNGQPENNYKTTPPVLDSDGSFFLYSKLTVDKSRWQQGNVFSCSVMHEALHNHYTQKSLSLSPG
light 1: B1 light 1
light 2: B10 light 2
notes: κλ-body, IgG1 LALAPA; also called AI5 (AI_1A9) kappa / AC84 (AC1g6_1F1) lambda
B12: AI10AC84/N (bispecific antibody, human IgG1, kappa, lambda, L234A L235A)
heavy: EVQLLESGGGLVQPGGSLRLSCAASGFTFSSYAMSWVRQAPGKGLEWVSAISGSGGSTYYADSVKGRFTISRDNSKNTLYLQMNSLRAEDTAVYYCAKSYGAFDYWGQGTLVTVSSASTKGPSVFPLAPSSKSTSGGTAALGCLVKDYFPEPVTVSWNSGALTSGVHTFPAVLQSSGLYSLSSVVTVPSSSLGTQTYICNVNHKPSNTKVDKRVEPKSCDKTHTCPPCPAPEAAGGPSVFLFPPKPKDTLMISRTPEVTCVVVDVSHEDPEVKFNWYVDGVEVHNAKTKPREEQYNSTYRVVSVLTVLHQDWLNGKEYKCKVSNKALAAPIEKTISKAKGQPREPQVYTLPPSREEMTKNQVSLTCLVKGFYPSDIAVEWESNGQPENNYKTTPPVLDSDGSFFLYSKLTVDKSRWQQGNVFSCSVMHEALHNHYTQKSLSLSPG
light 1: B1 light 1 with T31E, E33A, S98G, T99S, R100K, F101I, A102G
light 2: B10 light 2
notes: κλ-body, IgG1 LALAPA; also called AI10 (AI_1B6) kappa / AC84 (AC1g6_1F1) lambda

molecular target: T1, human CD28 (human, UniProt P10747 19-220); test: flow cytometry on Jurkat cells
T1 construct: whole, on cells; also called huCD28

Binding result, binds:
B1
B2
B3
B4
B5
B6
B7
B8

molecular target: T1, human CD28; test: flow cytometry on Jurkat cells, reference bsAb

Binding result, binds:
B9

molecular target: T1, human CD28; test: worded affinity grade in the in vivo example; no assay named there

Binding result, binds:
B10
B11
B12
